1 molecule from patent publication US20210002376A1 can be followed below.

As usually defined, the EC50 is the concentration needed to bring the measured effect to its halfway point. A higher EC50 goes with weaker potency.

For assay [1], the target named is HER3-Fc fusion protein (UniProt P21860). The assay is described as follows: ELISA, coated HER3-Fc, anti-human Fab-HRP. (In general: In an ELISA, binding on a coated surface is turned into a signal by an enzyme label.)
Assay [2] shares this target. The assay is described as follows: ELISA, coated HER3-Fc, anti-human Fab-HRP. This is another data set of the same source.
The target in the next assay is HER3-His (UniProt P21860). The assay is described as follows: ELISA, coated His-tagged HER3 ECD, anti-human Fc-HRP.

Read-outs that look alike come from different tables or passages of the source.

B1: 3-43-IgG (antibody, from a related filing, V domains shown)
VH: QVQLQQSGPGLVKPSQTLSLTCAISGDSVSSNRAAWNWIRQSPSRGLEWLGRTYYRSKWYNDYAQSLKSRITINPDTPKNQFSLQLNSVTPEDTAVYYCARDGQLGLDALDIWGQGTMVTVSS
VL: QAGLTQPPAVSVAPGQTASITCGRDNIGSRSVHWYQQKPGQAPVLVVYDDSDRPAGIPERFSGSNYENTATLTISRVEAGDEADYYCQVWGITSDHVVFGGGTKLTVLC
Take B1: the half-maximal effective concentration (EC50) with HER3-Fc fusion protein [1] was 0.2 nM; with HER3-Fc fusion protein [2], 0.21 nM; with HER3-His it was 0.23 nM.
